In publication PMC10223884, “Oligosaccharide Ligands of Galectin-4 and Its Subunits: Multivalency Scores Highly” (Molecules, 2023):
Several values for one entry are separate records, joined by “and”; a condition that tells them apart may be missing. Equal values may be shown once. One block for each molecule: values may come before it.

Columns and labels:
Gal-4NL [1] = target: T1, Gal-4NL (Homo sapiens, UniProt P56470); assay: competitive ELISA, inhibition of binding of Gal-4NL subunit to immobilized ASF
T1 construct: designated as Gal-4NL (aa 1-160), and Gal-4CL (aa 169-323), respectively; made in house; host or cells: E. coli Rosetta (DE3) pLysS
T1 sequence (P56470 1-160): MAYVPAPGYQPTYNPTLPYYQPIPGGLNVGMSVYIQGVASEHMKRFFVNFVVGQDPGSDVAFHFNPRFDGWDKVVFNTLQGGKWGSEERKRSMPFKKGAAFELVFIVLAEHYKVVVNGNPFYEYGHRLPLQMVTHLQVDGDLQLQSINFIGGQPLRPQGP
Procedure: (§1) To design the ELISA method, we first examined the direct binding of the whole Gal-4, Gal-4NL, and Gal-4-CL to standard glycoprotein asialofetuin (ASF, MW 48.4 kDa), which carries up to nine LacNAc epitopes. The ASF was immobilized by hydrophobic interaction in microtiter-plate wells, and the binding of increasing concentrations of Gal-4 proteins was quantified by colorimetric immunodetection using horseradish peroxidase conjugated to an anti-His-tag antibody. The apparent dissociation constants (KD) were calculated from the non-linear regression of the binding curves (Figure 3). […] While for the Gal-4 ELISA measurement we used the concentration of Gal-4 of 2.5 μM, for both subunits, it was 25 μM. […] The Gal-4 proteins were incubated with increasing concentrations of the respective inhibitors, and the concentration-dependent inhibition of the binding to the immobilized ASF was quantified using spectrophotometric colorimetric immunodetection (HRP-conjugated anti-His-tag antibody). The respective half-maximal inhibition constants (IC50) were calculated from the non-linear regression of the sigmoidal curves (Figure 3), and they are shown in Table 2 and Table 3.
(§2) Each incubation step was followed by washing the wells with 3 × 250 µL phosphate-buffered saline (PBS) containing 0.05% Tween® 20. In total, 0.1 µM ASF in PBS (50 µL/well) was coated onto microtiter plates (Nunc Immuno Sorb, ThermoFisher Scientific, Waltham, MA, USA) overnight. After blocking the wells with 2 mg/mL bovine serum albumin (BSA) in PBS buffer (250 µL/well, 1 h), serial dilutions of the inhibitors in PBS buffer containing 2 mM EDTA (EPBS) were incubated with Gal-4 (2.5 µM final dimer concentration) or its subunits, Gal-4CL and Gal-4NL (25 µM final monomer concentration) for 2 h (50 µL/well). The residual bound galectin was labeled with an anti-His-antibody conjugated with horseradish peroxidase (HRP) (Santa Cruz Biotechnology, Heidelberg, Germany; 1:999 dilution in PBS). The colorimetric reaction with TMB One substrate solution (Kem-En-Tec, Taastrup, Denmark; 50 µL/well) was stopped with 3 M hydrochloric acid (HCl) (50 µL/well) and quantified spectrophotometrically at 450 nm (Sunrise; Tecan Group Ltd., Männedorf, Switzerland). The values of half-maximal inhibitory concentrations (IC50) were calculated by non-linear regression (dose–response inhibition-variable slope) of sigmoidal curves from a minimum of three independent experiments using GraphPad Prism 8.4.3 (GraphPad Software, San Diego, CA, USA).

Gal-4CL [2] = target: T2, Gal-4CL (Homo sapiens, UniProt P56470); assay: competitive ELISA, inhibition of binding of Gal-4CL subunit to immobilized ASF
T2 construct: designated as Gal-4NL (aa 1-160), and Gal-4CL (aa 169-323), respectively; made in house; host or cells: E. coli Rosetta (DE3) pLysS
T2 sequence (P56470 169-323): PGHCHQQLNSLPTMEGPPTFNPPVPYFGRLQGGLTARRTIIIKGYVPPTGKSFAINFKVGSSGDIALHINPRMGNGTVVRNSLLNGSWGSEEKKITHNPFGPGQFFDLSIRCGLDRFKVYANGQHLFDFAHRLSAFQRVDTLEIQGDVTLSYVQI
Procedure: as §1, §2

Gal-4NL [3] = target: Gal-4NL; parameters: method as in PMID 33968903; details: ITC; cited from earlier work
Gal-4 [4] = target: T3, Gal-4 (Homo sapiens, UniProt P56470); assay: competitive ELISA, inhibition of binding of whole Gal-4 to immobilized ASF
T3 construct: made in house; host or cells: Escherichia coli Rosetta (DE3) pLysS
T3 sequence (P56470 1-323): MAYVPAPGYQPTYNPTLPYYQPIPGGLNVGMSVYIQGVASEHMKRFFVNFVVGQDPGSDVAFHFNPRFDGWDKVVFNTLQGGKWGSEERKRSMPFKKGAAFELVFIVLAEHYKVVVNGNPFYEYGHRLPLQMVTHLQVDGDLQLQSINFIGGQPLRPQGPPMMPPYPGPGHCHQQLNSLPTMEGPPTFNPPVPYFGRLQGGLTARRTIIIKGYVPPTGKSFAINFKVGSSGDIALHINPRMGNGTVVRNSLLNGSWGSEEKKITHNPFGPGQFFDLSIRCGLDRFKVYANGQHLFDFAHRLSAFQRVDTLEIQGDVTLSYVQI
Procedure: as §1, §2

Gal-4 [5] = target: T3, Gal-4; assay: direct ELISA, binding of whole Gal-4 to immobilized ASF; details: read-out: apparent KD
Procedure: (§3) To design the ELISA method, we first examined the direct binding of the whole Gal-4, Gal-4NL, and Gal-4-CL to standard glycoprotein asialofetuin (ASF, MW 48.4 kDa), which carries up to nine LacNAc epitopes. The ASF was immobilized by hydrophobic interaction in microtiter-plate wells, and the binding of increasing concentrations of Gal-4 proteins was quantified by colorimetric immunodetection using horseradish peroxidase conjugated to an anti-His-tag antibody. The apparent dissociation constants (KD) were calculated from the non-linear regression of the binding curves (Figure 3). […] The Gal-4 proteins were incubated with increasing concentrations of the respective inhibitors, and the concentration-dependent inhibition of the binding to the immobilized ASF was quantified using spectrophotometric colorimetric immunodetection (HRP-conjugated anti-His-tag antibody). The respective half-maximal inhibition constants (IC50) were calculated from the non-linear regression of the sigmoidal curves (Figure 3), and they are shown in Table 2 and Table 3.
(§4) The apparent dissociation constant (KD) of binding of the whole Gal-4 or its subunits to ASF was determined using direct enzyme-linked immunosorbent assay (ELISA), with washing steps as specified above. […] Residual galectins bound to the wells were labeled with anti-His-antibody conjugated with HRP, and evaluated as above.

Gal-4NL [6] = target: T1, Gal-4NL; assay: direct ELISA, binding of Gal-4NL to immobilized ASF; details: read-out: apparent KD
Procedure: as §3, §4

Gal-4CL [7] = target: T2, Gal-4CL; assay: direct ELISA, binding of Gal-4CL to immobilized ASF; details: read-out: apparent KD
Procedure: as §3, §4

[8] = target: T4, asialofetuin (standard glycoprotein, MW 48.4 kDa) (UniProt P12763 19-359, glycoprotein without sialic acid; carries up to nine LacNAc epitopes); assay: ELISA; direct ELISA; ASF (0.1 µM in PBS) coated on microtiter plate overnight, blocked with BSA; increasing concentrations of Gal-4 or its subunits, 2 h; detected with HRP-conjugated anti-His antibody; apparent KD from non-linear regression; details: both partners purified
T4 construct: Asialofetuin (desialylated fetuin), MW 48.4 kDa; Commercial asialofetuin is commonly from fetal calf serum; also called ASF
T4 sequence (looked up): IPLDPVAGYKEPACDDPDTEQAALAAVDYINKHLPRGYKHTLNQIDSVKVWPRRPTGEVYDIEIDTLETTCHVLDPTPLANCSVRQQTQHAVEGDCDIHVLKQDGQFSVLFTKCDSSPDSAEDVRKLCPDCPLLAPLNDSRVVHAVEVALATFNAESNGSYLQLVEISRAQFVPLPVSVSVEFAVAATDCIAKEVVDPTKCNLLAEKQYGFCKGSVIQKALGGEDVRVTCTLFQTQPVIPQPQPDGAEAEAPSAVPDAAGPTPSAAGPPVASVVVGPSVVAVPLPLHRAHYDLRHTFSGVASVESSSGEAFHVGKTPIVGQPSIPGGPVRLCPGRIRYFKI

[9] = target: T5, lactosyl-decorated neo-glycoprotein 12 (human serum albumin carrier) (human, UniProt P02768 25-609, 9.6 lactosyl residues (MALDI-TOF, 72,151 Da) attached by a thiourea linker and diethyl-squarate linkage; sites not stated); assay: BLI; His-tagged galectins (2 µg/mL, PBS with 0.05% Tween-20) immobilised on Ni-NTA biosensors; serially diluted neo-glycoprotein 12 in solution; 25 °C, 800 rpm; steady-state analysis; details: both partners purified
T5 construct: Human serum albumin, carrier of the synthetic lactosyl ligands; source: HSA coupled with squarate monoamide ester 11 (tetraborate buffer pH 9.0, 72 h), washed with water by ultracentrifugation
T5 sequence (P02768 25-609): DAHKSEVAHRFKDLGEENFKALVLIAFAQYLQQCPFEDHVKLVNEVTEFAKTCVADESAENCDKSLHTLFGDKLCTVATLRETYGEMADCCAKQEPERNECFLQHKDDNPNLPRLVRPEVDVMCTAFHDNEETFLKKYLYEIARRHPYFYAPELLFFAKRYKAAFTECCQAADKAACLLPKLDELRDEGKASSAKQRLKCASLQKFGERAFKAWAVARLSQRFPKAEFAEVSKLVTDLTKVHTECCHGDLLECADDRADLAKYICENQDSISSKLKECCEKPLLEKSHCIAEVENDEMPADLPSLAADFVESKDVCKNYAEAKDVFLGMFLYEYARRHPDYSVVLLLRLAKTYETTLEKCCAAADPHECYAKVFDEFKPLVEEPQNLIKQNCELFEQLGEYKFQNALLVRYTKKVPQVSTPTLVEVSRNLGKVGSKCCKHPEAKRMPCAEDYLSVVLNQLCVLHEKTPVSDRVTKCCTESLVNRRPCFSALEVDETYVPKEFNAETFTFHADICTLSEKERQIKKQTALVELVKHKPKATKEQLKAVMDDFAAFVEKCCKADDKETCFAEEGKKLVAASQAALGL

[10] = dynamic light scattering (DLS) of Gal-4 and its subunits in solution; format: physicochemical; details: 25 µM, 25 °C
Procedure: Therefore, we decided to obtain more insights into the potential aggregation behavior of the Gal-4 subunits in solution, which, theoretically, might have contributed to the multivalency effect, even with the monovalent Gal-4 subunits. The hydrodynamic radii of the whole Gal-4 and its subunits in the concentrations used in the ELISA assay (25 µM) were assessed using dynamic light scattering (DLS). This method provided information about the size distribution of the particles in the samples (Table 4). […] Therefore, the larger particles seemed to be more abundant in these distribution diagrams because light scattering is proportional to the sixth power of the scattering-matter diameter. To avoid misinterpretation, we also present the volume-weighed size distributions in Table 4, which highlight the most abundant populations of particles. These values indicate that in the cases of the whole Gal-4 and Gal-4CL, the large aggregates at 1200 nm and 400 nm, respectively, can be neglected (the volume-weighted size distributions accounted for 9 and 7 nm, respectively). The whole Gal-4 formed the most abundant particles, of 11 nm, which was similar to Gal-4CL with 8 nm particles. In the case of Gal-4NL, the solution was more polydisperse, and two significant populations were observed. The first population, of 1.3 nm, probably represented the individual Gal-4NL subunits, whereas the slightly larger population of 16 nm belonged to the aggregated species.
The hydrodynamic diameter of the Gal-4 and its subunits (25 μM) was measured by dynamic light scattering (DLS) using Zetasizer Nano S90 (Malvern Instruments Ltd., Malvern, UK) at 25 °C. The light scattered at θ = 173° from the incident light was fitted to an autocorrelation function using the method of cumulants (Malvern Instruments Ltd., Malvern, UK). The hydrodynamic diameters were determined from five independent repetitions (10–50 runs) in Malvern disposable plastic cuvettes. The particle-size distribution was determined by analyzing the multimodal peak by intensity and volume.

[11] = target: the molecule itself; assay: dynamic light scattering; Gal-4 and its subunits at 25 µM, 25 °C, Zetasizer Nano S90; size distribution by intensity and by volume

Molecule: C[C@@H]1O[C@@H](O[C@H]2[C@H](O[C@H]3[C@H](O)[C@@H](O)C(O)O[C@@H]3CO)O[C@H](CO)[C@H](O)[C@@H]2O[C@H]2O[C@H](CO)[C@H](O)[C@H](O)[C@H]2O)[C@@H](O)[C@H](O)[C@@H]1O (stereo partly shown) [blood-group antigen B (6), blood-group antigen B type 6]
rp Gal-4NL, relative potency (IC50 (lactose)/IC50 (ligand)) (Gal-4NL [1]; Gal-4NL): 11
IC50 (Gal-4NL [1]; competitive ELISA, Gal-4NL 25 µM, immobilized ASF): 260 ± 10 µM
rp Gal-4CL, relative potency (IC50 (lactose)/IC50 (ligand)) (Gal-4CL [2]; Gal-4CL): 28
IC50 (Gal-4CL [2]; competitive ELISA, Gal-4CL 25 µM, immobilized ASF): 300 ± 30 µM
Kd (Gal-4NL [3]): 51 µM
IC50 (Gal-4 [4]; competitive ELISA, Gal-4 2.5 µM, immobilized ASF): 80 ± 30 µM
rp, relative potency (IC50 (lactose)/IC50 (ligand)) (Gal-4 [4]; whole Gal-4): 31

Molecule: asialofetuin [ASF]
Kd (Gal-4 [5]): 3.3 ± 1.1 µM
Kd (Gal-4NL [6]): 38 ± 3 µM
Kd (Gal-4CL [7]): 19 ± 2 µM

B3: Gal-4NL: N-terminal subunit of Gal-4 (aa 1-160) with 10-amino-acid linker, His-tagged (protein)
chain: T1 sequence (P56470 1-160)
modifications: left off: His6, N-terminal, kept
notes: N-terminal subunit of Gal-4 (aa 1-160) with 10-amino-acid linker, His-tagged
Intensity-Weighed Size Distribution Area (first population) [10]: 13%
Intensity-Weighed Size Distribution Area (second population) [10]: 50%
Intensity-Weighed Size Distribution Size (first population) [10]: 1.3 nm and 1.3 ± 0.3 nm
Intensity-Weighed Size Distribution Size (second population) [10]: 16 nm and 16 ± 7 nm
PDI, polydispersity index [10]: 0.4
Volume-Weighted Size Distribution Area [10]: 100%
Volume-Weighted Size Distribution Size [10]: 3 ± 1 nm

Continued, in another order:

Kd [8]: 3.3 ± 1.1 µM
B1: Galectin-4 (whole, His6-tagged construct of human Gal-4) (natural protein, UniProt P56470 1-323, looked up)
chain: T3 sequence (P56470 1-323)
notes: Galectin-4, human, whole protein (two CRDs joined by the linker peptide); also called whole Gal-4; total Gal-4; not shown: His6, N-terminal, kept

Kd [8]: 38 ± 3 µM
Kd [9]: 1000 ± 200 nM
B2: N-terminal subunit of Gal-4 with 10 linker residues (Gal-4NL, aa 1-160) (domain or fragment, human, UniProt P56470 1-160, looked up)
chain: T1 sequence (P56470 1-160)
notes: Galectin-4, human, N-terminal CRD (aa 1-150) with 10 further residues of the inter-domain linker at the C-terminus (aa 1-160); made by PCR from the Gal-4 plasmid, NdeI/XhoI; not shown: His6, N-terminal, kept

Kd [8]: 19 ± 2 µM
B4: C-terminal subunit of Gal-4 with 10 linker residues (Gal-4CL, aa 169-323) (domain or fragment, human, UniProt P56470 169-323, looked up)
chain: T2 sequence (P56470 169-323)
notes: Galectin-4, human, C-terminal CRD (aa 179-323) with 10 further residues of the inter-domain linker at the N-terminus (aa 169-323); made by PCR from the Gal-4 plasmid, NdeI/XhoI; not shown: His6, N-terminal, kept
binding result [11]: binds
